The target of one series is T1, MORC2 WT (Homo sapiens, UniProt Q9Y6X9 1-1032).
T1 sequence: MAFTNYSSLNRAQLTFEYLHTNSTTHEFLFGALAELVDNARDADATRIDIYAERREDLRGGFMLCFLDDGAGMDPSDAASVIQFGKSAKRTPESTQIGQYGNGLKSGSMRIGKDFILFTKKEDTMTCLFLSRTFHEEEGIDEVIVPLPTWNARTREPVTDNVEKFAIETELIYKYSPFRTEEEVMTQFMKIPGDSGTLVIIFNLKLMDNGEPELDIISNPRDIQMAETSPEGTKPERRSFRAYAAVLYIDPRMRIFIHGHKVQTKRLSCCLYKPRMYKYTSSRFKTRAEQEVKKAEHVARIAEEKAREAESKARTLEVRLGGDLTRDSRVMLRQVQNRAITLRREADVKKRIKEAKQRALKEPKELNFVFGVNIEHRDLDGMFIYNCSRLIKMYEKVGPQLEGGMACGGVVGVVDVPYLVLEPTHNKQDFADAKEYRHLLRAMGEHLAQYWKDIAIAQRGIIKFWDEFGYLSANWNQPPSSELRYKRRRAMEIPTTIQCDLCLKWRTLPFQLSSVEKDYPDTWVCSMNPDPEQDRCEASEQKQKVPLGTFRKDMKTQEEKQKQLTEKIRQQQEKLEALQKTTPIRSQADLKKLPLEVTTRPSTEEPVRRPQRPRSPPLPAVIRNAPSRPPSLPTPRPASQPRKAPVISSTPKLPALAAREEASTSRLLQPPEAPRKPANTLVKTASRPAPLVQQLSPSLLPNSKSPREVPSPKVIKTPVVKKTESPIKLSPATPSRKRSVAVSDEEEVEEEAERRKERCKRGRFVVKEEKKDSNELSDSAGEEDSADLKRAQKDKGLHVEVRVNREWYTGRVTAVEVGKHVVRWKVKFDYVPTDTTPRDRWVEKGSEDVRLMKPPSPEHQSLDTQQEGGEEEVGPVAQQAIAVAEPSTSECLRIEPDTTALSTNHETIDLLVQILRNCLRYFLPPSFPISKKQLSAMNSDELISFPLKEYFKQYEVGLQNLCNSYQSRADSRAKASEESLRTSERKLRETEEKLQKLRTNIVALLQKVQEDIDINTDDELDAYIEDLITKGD
Kind of series: competition; pre-bound; resists 90 bp competitor (clamp); EMSA: 20 mM Tris pH 7.4, 75 mM NaCl, 5% glycerol, 0.005% NP-40, 0.5 mM MgCl2, RT 30 min; SPR: 10 mM HEPES pH 7.4, 300 mM NaCl, 3 mM EDTA, 0.05% Tween-20, 20 C. The settings on record: protein: recombinant; tags: C-terminal 3C site-twin StrepII; chain copies: 2; closed circle. On the technique in general: In EMSA bound probe runs differently from free probe, usually more slowly.

Another series has as its target T2, MORC2 ATPase (Homo sapiens, UniProt Q9Y6X9 1-603).
T2 sequence: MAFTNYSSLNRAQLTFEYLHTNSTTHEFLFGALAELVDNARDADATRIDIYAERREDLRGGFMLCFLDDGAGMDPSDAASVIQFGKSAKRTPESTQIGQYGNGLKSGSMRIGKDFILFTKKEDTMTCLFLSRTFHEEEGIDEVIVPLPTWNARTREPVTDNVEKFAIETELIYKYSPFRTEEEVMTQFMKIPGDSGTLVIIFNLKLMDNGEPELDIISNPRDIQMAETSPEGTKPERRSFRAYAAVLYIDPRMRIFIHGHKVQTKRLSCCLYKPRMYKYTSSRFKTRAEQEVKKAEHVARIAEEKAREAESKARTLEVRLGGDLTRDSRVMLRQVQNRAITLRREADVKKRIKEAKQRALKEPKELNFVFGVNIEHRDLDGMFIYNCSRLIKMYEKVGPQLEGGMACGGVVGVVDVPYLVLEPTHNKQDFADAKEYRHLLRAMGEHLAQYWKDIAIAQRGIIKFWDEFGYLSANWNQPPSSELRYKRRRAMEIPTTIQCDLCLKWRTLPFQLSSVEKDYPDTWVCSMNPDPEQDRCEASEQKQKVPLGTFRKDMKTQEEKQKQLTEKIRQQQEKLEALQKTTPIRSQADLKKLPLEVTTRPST
Kind of series: competition; pre-bound; more competitor uptake than WT; EMSA: 20 mM Tris pH 7.4, 75 mM NaCl, 5% glycerol, 0.005% NP-40, 0.5 mM MgCl2, RT 30 min; SPR: 10 mM HEPES pH 7.4, 300 mM NaCl, 3 mM EDTA, 0.05% Tween-20, 20 C. The settings on record: protein: recombinant; tags: N-terminal 6xHis; closed circle.

B1: 101 bp circular dsDNA (dsDNA)
DNA 1: CGGTCGTTTAGCATACTAATCTGAGAGTCCGACGGTCGTCAGTCAGTCATGACTTCACAGAGGAAGGGCCAGTATCCTGTCCAAACTTGATGCTCGAATTC
DNA 2: GAATTCGAGCATCAAGTTTGGACAGGATACTGGCCCTTCCTCTGTGAAGTCATGACTGACTGACGACCGTCGGACTCTCAGATTAGTATGCTAAACGACCG
As to B1, the binding result with MORC2 WT and with MORC2 ATPase was “binds” each time.

The values are drawn from PMC12216690, “MORC2 is a phosphorylation-dependent DNA compaction machine” (Nature Communications, 2024).
